The supplement of paper PMC10567573

B1: ATL3 (parent)
chain: YGLQGGMAFLDKRLQVKEHQHEEI

Variants of: B1
Experiment: protein stability index of a GFP-peptide fusion (GPS, HEK-293T) (PSI 1-6); higher = more stable
Settings: c terminus: a fixed tail appended
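Note: lentivirally expressed fusions sorted by FACS into six bins by GFP to DsRed ratio, PSI derived from sequencing read proportions per bin multiplied by bin number.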

Question: Which protein stability index does the source give for YGLQGGEAFLDKRLQVKEHQHEEI [M7E] here?
Answer: 3.23

Question: With YGLQGGNAFLDKRLQVKEHQHEEI [M7N] as the variant, how does the protein stability index read?
Answer: 2.23

Question: Which protein stability index does the source give for YGLQGGPAFLDKRLQVKEHQHEEI [M7P] here?
Answer: 2.18

Question: Which protein stability index does the source give for YGLQGGHAFLDKRLQVKEHQHEEI [M7H] here?
Answer: 1.75

Question: With YGLQGGQAFLDKRLQVKEHQHEEI [M7Q] as the variant, how does the protein stability index read?
Answer: 1.03

Question: Which protein stability index does the source give for YGLQGGMAFLKKRLQVKEHQHEEI [D11K] here?
Answer: 2.27

Question: For YGLQGGMAFLHKRLQVKEHQHEEI [D11H], which protein stability index is on record?
Answer: 1.61

Question: For YGLQGGMAFLYKRLQVKEHQHEEI [D11Y], which protein stability index is on record?
Answer: 2.74

Question: Which protein stability index does the source give for YGLQGGMAFLLKRLQVKEHQHEEI [D11L] here?
Answer: 2.37

Question: For YGLQGGMAFLGKRLQVKEHQHEEI [D11G], which protein stability index is on record?
Answer: 2.76

Question: Which protein stability index does the source give for YGLQGGMAFLRKRLQVKEHQHEEI [D11R] here?
Answer: 1.95

Question: For YGLQGGMAFLPKRLQVKEHQHEEI [D11P], which protein stability index is on record?
Answer: 2.33

Question: Which protein stability index does the source give for YGLQGGMAFLIKRLQVKEHQHEEI [D11I] here?
Answer: 1.85

Question: For YGLQGGMAFLCKRLQVKEHQHEEI [D11C], which protein stability index is on record?
Answer: 2.94

Question: Which protein stability index does the source give for YGLQGGMAFLAKRLQVKEHQHEEI [D11A] here?
Answer: 1.65

Question: For YGLQGGMAFLVKRLQVKEHQHEEI [D11V], which protein stability index is on record?
Answer: 2.84

Question: With YGLQGGMAFLEKRLQVKEHQHEEI [D11E] as the variant, how does the protein stability index read?
Answer: 2.9

Question: Which protein stability index does the source give for YGLQGGMAFLMKRLQVKEHQHEEI [D11M] here?
Answer: 2.22

Question: Which protein stability index does the source give for YGLQGGMAFLSKRLQVKEHQHEEI [D11S] here?
Answer: 1.91

Question: With YGLQGGMAFLWKRLQVKEHQHEEI [D11W] as the variant, how does the protein stability index read?
Answer: 2.01

Question: For YGLQGGMAFLNKRLQVKEHQHEEI [D11N], which protein stability index is on record?
Answer: 1.81

Question: Which protein stability index does the source give for YGLQGGMAFLQKRLQVKEHQHEEI [D11Q] here?
Answer: 1.72

Question: For YGLQGGMAFLTKRLQVKEHQHEEI [D11T], which protein stability index is on record?
Answer: 2.16

Question: With YGLQGGMAFLFKRLQVKEHQHEEI [D11F] as the variant, how does the protein stability index read?
Answer: 1.78

Question: With YGLQGGMAFQDKRLQVKEHQHEEI [L10Q] as the variant, how does the protein stability index read?
Answer: 1.65

Question: With YGLQGGMAFCDKRLQVKEHQHEEI [L10C] as the variant, how does the protein stability index read?
Answer: 3.07

Question: With YGLQGGMAFFDKRLQVKEHQHEEI [L10F] as the variant, how does the protein stability index read?
Answer: 2.03

Question: For YGLQGGMAFHDKRLQVKEHQHEEI [L10H], which protein stability index is on record?
Answer: 1.98

Question: With YGLQGGMAFEDKRLQVKEHQHEEI [L10E] as the variant, how does the protein stability index read?
Answer: 3.82

Question: With YGLQGGMAFADKRLQVKEHQHEEI [L10A] as the variant, how does the protein stability index read?
Answer: 3.49

Question: With YGLQGGMAFNDKRLQVKEHQHEEI [L10N] as the variant, how does the protein stability index read?
Answer: 2.05

Question: For YGLQGGMAFMDKRLQVKEHQHEEI [L10M], which protein stability index is on record?
Answer: 1.54

Question: Which protein stability index does the source give for YGLQGGMAFVDKRLQVKEHQHEEI [L10V] here?
Answer: 2.57

Question: For YGLQGGMAFGDKRLQVKEHQHEEI [L10G], which protein stability index is on record?
Answer: 1.89

Question: With YGLQGGMAFPDKRLQVKEHQHEEI [L10P] as the variant, how does the protein stability index read?
Answer: 3.39

Question: Which protein stability index does the source give for YGLQGGMAFTDKRLQVKEHQHEEI [L10T] here?
Answer: 2.35

Question: With YGLQGGMAFKDKRLQVKEHQHEEI [L10K] as the variant, how does the protein stability index read?
Answer: 1.62

Question: Which protein stability index does the source give for YGLQGGMAFWDKRLQVKEHQHEEI [L10W] here?
Answer: 1.96

Question: For YGLQGGMAFDDKRLQVKEHQHEEI [L10D], which protein stability index is on record?
Answer: 4.11

Question: Which protein stability index does the source give for YGLQGGMAFYDKRLQVKEHQHEEI [L10Y] here?
Answer: 1.68

Question: With YGLQGGMADLDKRLQVKEHQHEEI [F9D] as the variant, how does the protein stability index read?
Answer: 4.88

Question: With YGLQGGMASLDKRLQVKEHQHEEI [F9S] as the variant, how does the protein stability index read?
Answer: 4.49

Question: Which protein stability index does the source give for YGLQGGMAPLDKRLQVKEHQHEEI [F9P] here?
Answer: 4.69

Question: For YGLQGGMATLDKRLQVKEHQHEEI [F9T], which protein stability index is on record?
Answer: 4.58

Question: For YGLQGGMAHLDKRLQVKEHQHEEI [F9H], which protein stability index is on record?
Answer: 4.06

Question: With YGLQGGMANLDKRLQVKEHQHEEI [F9N] as the variant, how does the protein stability index read?
Answer: 4.51

Question: With YGLQGGMAMLDKRLQVKEHQHEEI [F9M] as the variant, how does the protein stability index read?
Answer: 4.25

Question: For YGLQGGMARLDKRLQVKEHQHEEI [F9R], which protein stability index is on record?
Answer: 3.79

Question: For YGLQGGMAELDKRLQVKEHQHEEI [F9E], which protein stability index is on record?
Answer: 5

Question: Which protein stability index does the source give for YGLQGGMAVLDKRLQVKEHQHEEI [F9V] here?
Answer: 4.23

Question: Which protein stability index does the source give for YGLQGGMAWLDKRLQVKEHQHEEI [F9W] here?
Answer: 2.26

Question: Which protein stability index does the source give for YGLQGGMAKLDKRLQVKEHQHEEI [F9K] here?
Answer: 4.4

Question: With YGLQGGMAYLDKRLQVKEHQHEEI [F9Y] as the variant, how does the protein stability index read?
Answer: 1.91

Question: With YGLQGGMAALDKRLQVKEHQHEEI [F9A] as the variant, how does the protein stability index read?
Answer: 4.3

Question: Which protein stability index does the source give for YGLQGGMAILDKRLQVKEHQHEEI [F9I] here?
Answer: 3.82

Question: For YGLQGGMAQLDKRLQVKEHQHEEI [F9Q], which protein stability index is on record?
Answer: 4.42

Question: Which protein stability index does the source give for YGLQGGMACLDKRLQVKEHQHEEI [F9C] here?
Answer: 4.13

Question: With YGLQGGMALLDKRLQVKEHQHEEI [F9L] as the variant, how does the protein stability index read?
Answer: 3.84

Question: Which protein stability index does the source give for YGLQGGMAGLDKRLQVKEHQHEEI [F9G] here?
Answer: 4.45

Question: For YGLQGGMCFLDKRLQVKEHQHEEI [A8C], which protein stability index is on record?
Answer: 2

Question: With YGLQGGMLFLDKRLQVKEHQHEEI [A8L] as the variant, how does the protein stability index read?
Answer: 2.67

Question: Which protein stability index does the source give for YGLQGGMHFLDKRLQVKEHQHEEI [A8H] here?
Answer: 1.4

Question: For YGLQGGMDFLDKRLQVKEHQHEEI [A8D], which protein stability index is on record?
Answer: 3.79

Question: Which protein stability index does the source give for YGLQGGMSFLDKRLQVKEHQHEEI [A8S] here?
Answer: 2.09

Question: For YGLQGGMIFLDKRLQVKEHQHEEI [A8I], which protein stability index is on record?
Answer: 2.71

Question: For YGLQGGMNFLDKRLQVKEHQHEEI [A8N], which protein stability index is on record?
Answer: 2.33

Question: For YGLQGGMQFLDKRLQVKEHQHEEI [A8Q], which protein stability index is on record?
Answer: 2.02

Question: Which protein stability index does the source give for YGLQGGMTFLDKRLQVKEHQHEEI [A8T] here?
Answer: 3.38

Question: For YGLQGGMFFLDKRLQVKEHQHEEI [A8F], which protein stability index is on record?
Answer: 3.46

Question: Which protein stability index does the source give for YGLQGGMGFLDKRLQVKEHQHEEI [A8G] here?
Answer: 2.81

Question: Which protein stability index does the source give for YGLQGGMVFLDKRLQVKEHQHEEI [A8V] here?
Answer: 2.42

Question: With YGLQGGMPFLDKRLQVKEHQHEEI [A8P] as the variant, how does the protein stability index read?
Answer: 2.93

Question: With YGLQGGMKFLDKRLQVKEHQHEEI [A8K] as the variant, how does the protein stability index read?
Answer: 1.71

Question: For YGLQGGMRFLDKRLQVKEHQHEEI [A8R], which protein stability index is on record?
Answer: 1.74

Question: For YGLQGGMEFLDKRLQVKEHQHEEI [A8E], which protein stability index is on record?
Answer: 2.91

Question: With YGLQGGMYFLDKRLQVKEHQHEEI [A8Y] as the variant, how does the protein stability index read?
Answer: 2.68

Question: With YGLQGGMWFLDKRLQVKEHQHEEI [A8W] as the variant, how does the protein stability index read?
Answer: 3.35

Question: For YGAQGGMAFLDKRLQVKEHQHEEI [L3A], which protein stability index is on record?
Answer: 1.92

Question: With YGPQGGMAFLDKRLQVKEHQHEEI [L3P] as the variant, how does the protein stability index read?
Answer: 2.55

Question: With YGEQGGMAFLDKRLQVKEHQHEEI [L3E] as the variant, how does the protein stability index read?
Answer: 2.37

Question: With YGRQGGMAFLDKRLQVKEHQHEEI [L3R] as the variant, how does the protein stability index read?
Answer: 3.69

Question: With YGYQGGMAFLDKRLQVKEHQHEEI [L3Y] as the variant, how does the protein stability index read?
Answer: 2.99

Question: For YGQQGGMAFLDKRLQVKEHQHEEI [L3Q], which protein stability index is on record?
Answer: 2.73

Question: With YGWQGGMAFLDKRLQVKEHQHEEI [L3W] as the variant, how does the protein stability index read?
Answer: 3.64

Question: For YGIQGGMAFLDKRLQVKEHQHEEI [L3I], which protein stability index is on record?
Answer: 2.2

Question: With YGTQGGMAFLDKRLQVKEHQHEEI [L3T] as the variant, how does the protein stability index read?
Answer: 2.86

Question: Which protein stability index does the source give for YGKQGGMAFLDKRLQVKEHQHEEI [L3K] here?
Answer: 2.93

Question: Which protein stability index does the source give for YGCQGGMAFLDKRLQVKEHQHEEI [L3C] here?
Answer: 2.03

Question: Which protein stability index does the source give for YGMQGGMAFLDKRLQVKEHQHEEI [L3M] here?
Answer: 2.31

Question: With YGGQGGMAFLDKRLQVKEHQHEEI [L3G] as the variant, how does the protein stability index read?
Answer: 2.46

Question: Which protein stability index does the source give for YGDQGGMAFLDKRLQVKEHQHEEI [L3D] here?
Answer: 2.96

Question: With YGHQGGMAFLDKRLQVKEHQHEEI [L3H] as the variant, how does the protein stability index read?
Answer: 2.81

Question: For YGNQGGMAFLDKRLQVKEHQHEEI [L3N], which protein stability index is on record?
Answer: 2.45

Question: With YGFQGGMAFLDKRLQVKEHQHEEI [L3F] as the variant, how does the protein stability index read?
Answer: 2.76
